Data from patent US20100129383A1 (GOVERNORS OF THE UNIVERSITY OF ALBERTA, published 2010).

Molecular target: T1, DEC-205 receptor on DC 2.4 cells (mouse) (mouse, UniProt Q60767 28-1723)
T1 construct: whole, on cells; also called CD205
Experiment: competition cell ELISA on DC 2.4 cells; competitor bfFp (WET7) pre-bound

B1: HB290 mAb (rat anti-mouse DEC-205 monoclonal antibody) (antibody, V domains shown)
VH: EVKLVESGGGLVQPGGSLRLSCAASGFTFNDFYMNWIRQPPGQAPEWLGVIRNKGNGYTTEVNTSVKGRFTISRDNTQNILYLQMNSLRAEDTAIYYCARGGPYYYSGDDAPYWGQGVMVTVSS
VL: DIQMTQSPSFLSTSLGNSITITCHASQNIKGWLAWYQQKSGNAPQLLIYKASSLQSGVPSRFSGSGSGTDYIFTISNLQPEDIATYYCQHYQSFPWTFGGGTKLELK
notes: Full-length rat mAb from the ATCC hybridoma HB290; also called full-length HB290 mAb; NLDC-145
  binding result: binds
